Target: T1, recombinant 6PGD (re6PGD) (UniProt P52209 1-483)
T1 construct: 6-phosphogluconate dehydrogenase (6PGD), wild type; source: bacterially expressed recombinant
T1 sequence (looked up): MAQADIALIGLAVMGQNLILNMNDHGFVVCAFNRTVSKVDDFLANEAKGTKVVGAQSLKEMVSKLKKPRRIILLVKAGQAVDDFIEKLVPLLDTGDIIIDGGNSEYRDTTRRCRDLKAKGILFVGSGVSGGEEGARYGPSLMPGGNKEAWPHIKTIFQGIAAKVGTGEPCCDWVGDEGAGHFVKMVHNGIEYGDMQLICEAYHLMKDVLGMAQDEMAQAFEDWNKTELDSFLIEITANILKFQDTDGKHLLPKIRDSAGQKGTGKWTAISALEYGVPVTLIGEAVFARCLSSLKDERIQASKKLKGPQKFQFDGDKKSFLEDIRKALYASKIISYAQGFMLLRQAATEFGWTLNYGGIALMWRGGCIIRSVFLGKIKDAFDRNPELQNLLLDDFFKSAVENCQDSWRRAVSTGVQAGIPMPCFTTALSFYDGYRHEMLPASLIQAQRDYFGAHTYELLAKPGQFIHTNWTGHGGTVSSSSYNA
Test: MST; microscale thermophoresis of 6PGD and ALKBH5 (Fig. S5A); conditions not shown
Settings: both partners purified

- Kd: 1630 nM
B1: recombinant ALKBH5 (reALKBH5; aa:66–292) (domain or fragment, UniProt Q6P6C2 66-292, looked up)
chain: PERSDYEEQQLQKEEEARKVKSGIRQMRLFSQDECAKIEARIDEVVSRAEKGLYNEHTVDRAPLRNKYFFGEGYTYGAQLQKRGPGQERLYPPGDVDEIPEWVHQLVIQKLVEHRVIPEGFVNSAVINDYQPGGCIVSHVDPIHIFERPIVSVSFFSDSALCFGCKFQFKPIRVSEPVLSLPVRRGSVTVLSGYAADEITHCIRPQDIKERRAVIILRKTRLDAPRL
notes: ALKBH5, residues 66-292; The range 66-292 is printed where the in vitro methylation assay is told; source: recombinant

From paper PMC12224427, “The non-metabolic function of 6PGD coordinates CCNA2 and HMGA2 expression to drive colorectal cancer progression and drug response” (Journal of Experimental & Clinical Cancer Research : CR, 2025)
